The values that follow come from patent US20240116997A1 (BRIGHT PEAK THERAPEUTICS, published 2024).

To fix the notation:
B1: C176 (E6K, V11I, C38A, I49M, K53A, T63A, C76A, C127A) (ligand)
chain: YFGKLKSKLSIIRNLNDQVLFIDQGNRPLFEDMTDSDARDNAPRTIFIMSMYADSQPRGMAVAISVKCEKISTLSAENKIISFKEMNPPDNIKDTKSDIIFFQRSVPGHDNKMQFESSSYEGYFLAAEKERDLFKLILKKEDELGDRSIMFTVQNED
B2: C181 (E6K, V11I, C38A, K53A, T63A, C76A, C127A, V153E) (ligand)
chain: YFGKLKSKLSIIRNLNDQVLFIDQGNRPLFEDMTDSDARDNAPRTIFIISMYADSQPRGMAVAISVKCEKISTLSAENKIISFKEMNPPDNIKDTKSDIIFFQRSVPGHDNKMQFESSSYEGYFLAAEKERDLFKLILKKEDELGDRSIMFTEQNED
B3: C177 (E6K, V11I, C38A, I49R, K53A, T63A, C76A, C127A) (ligand)
chain: YFGKLKSKLSIIRNLNDQVLFIDQGNRPLFEDMTDSDARDNAPRTIFIRSMYADSQPRGMAVAISVKCEKISTLSAENKIISFKEMNPPDNIKDTKSDIIFFQRSVPGHDNKMQFESSSYEGYFLAAEKERDLFKLILKKEDELGDRSIMFTVQNED
B4: C183 (SEQ ID NO: 80; E6K, V11I, C38A, M51G, K53A, T63A, C76A, C127A) (ligand)
chain: YFGKLKSKLSIIRNLNDQVLFIDQGNRPLFEDMTDSDARDNAPRTIFIISGYADSQPRGMAVAISVKCEKISTLSAENKIISFKEMNPPDNIKDTKSDIIFFQRSVPGHDNKMQFESSSYEGYFLAAEKERDLFKLILKKEDELGDRSIMFTVQNED
B5: C179 (E6K, K8E, V11I, C38A, K53A, T63A, C76A, Q103R, C127A) (ligand)
chain: YFGKLKSELSIIRNLNDQVLFIDQGNRPLFEDMTDSDARDNAPRTIFIISMYADSQPRGMAVAISVKCEKISTLSAENKIISFKEMNPPDNIKDTKSDIIFFRRSVPGHDNKMQFESSSYEGYFLAAEKERDLFKLILKKEDELGDRSIMFTVQNED
B6: C184 (E6R, V11I, C38A, K53A, T63A, C76A, C127A) (ligand)
chain: YFGKLRSKLSIIRNLNDQVLFIDQGNRPLFEDMTDSDARDNAPRTIFIISMYADSQPRGMAVAISVKCEKISTLSAENKIISFKEMNPPDNIKDTKSDIIFFQRSVPGHDNKMQFESSSYEGYFLAAEKERDLFKLILKKEDELGDRSIMFTVQNED
B7: C174 (K8L, E6K, V11I, C38A, K53A, T63A, C76A, C127A) (ligand)
chain: YFGKLKSLLSIIRNLNDQVLFIDQGNRPLFEDMTDSDARDNAPRTIFIISMYADSQPRGMAVAISVKCEKISTLSAENKIISFKEMNPPDNIKDTKSDIIFFQRSVPGHDNKMQFESSSYEGYFLAAEKERDLFKLILKKEDELGDRSIMFTVQNED
B8: C182 (E6K, V11I, C38A, K53A, T63A, C76A, C127A, V153Y) (ligand)
chain: YFGKLKSKLSIIRNLNDQVLFIDQGNRPLFEDMTDSDARDNAPRTIFIISMYADSQPRGMAVAISVKCEKISTLSAENKIISFKEMNPPDNIKDTKSDIIFFQRSVPGHDNKMQFESSSYEGYFLAAEKERDLFKLILKKEDELGDRSIMFTYQNED
B9: C178 (E6K, V11I, C38A, K53A, T63A, C76A, Q103R, C127A) (ligand)
chain: YFGKLKSKLSIIRNLNDQVLFIDQGNRPLFEDMTDSDARDNAPRTIFIISMYADSQPRGMAVAISVKCEKISTLSAENKIISFKEMNPPDNIKDTKSDIIFFRRSVPGHDNKMQFESSSYEGYFLAAEKERDLFKLILKKEDELGDRSIMFTVQNED
B10: C142 (Y1M, E6K, V11I, C38A, K53A, T63A, C76A, C127A) (ligand)
chain: MFGKLKSKLSIIRNLNDQVLFIDQGNRPLFEDMTDSDARDNAPRTIFIISMYADSQPRGMAVAISVKCEKISTLSAENKIISFKEMNPPDNIKDTKSDIIFFQRSVPGHDNKMQFESSSYEGYFLAAEKERDLFKLILKKEDELGDRSIMFTVQNED
B11: IL-18 polypeptide SEQ ID NO: 56 (E6K, K53A, C38S, C76S, C127S) (ligand)
chain: YFGKLKSKLSVIRNLNDQVLFIDQGNRPLFEDMTDSDSRDNAPRTIFIISMYADSQPRGMAVTISVKCEKISTLSSENKIISFKEMNPPDNIKDTKSDIIFFQRSVPGHDNKMQFESSSYEGYFLASEKERDLFKLILKKEDELGDRSIMFTVQNED
B12: C141 (SEQ ID NO: 82; N-terminal G, E6K, V11I, C38A, K53A, T63A, C76A, C127A) (ligand)
chain: GYFGKLKSKLSIIRNLNDQVLFIDQGNRPLFEDMTDSDARDNAPRTIFIISMYADSQPRGMAVAISVKCEKISTLSAENKIISFKEMNPPDNIKDTKSDIIFFQRSVPGHDNKMQFESSSYEGYFLAAEKERDLFKLILKKEDELGDRSIMFTVQNED
B13: C192 (SEQ ID NO: 81; N-terminal G, E6K, V11I, C38A, M51G, K53A, T63A, C76A, C127A) (ligand)
chain: GYFGKLKSKLSIIRNLNDQVLFIDQGNRPLFEDMTDSDARDNAPRTIFIISGYADSQPRGMAVAISVKCEKISTLSAENKIISFKEMNPPDNIKDTKSDIIFFQRSVPGHDNKMQFESSSYEGYFLAAEKERDLFKLILKKEDELGDRSIMFTVQNED
B14: C140 (SEQ ID NO: 83; N-terminal 4xG, E6K, V11I, C38A, K53A, T63A, C76A, C127A) (ligand)
chain: GGGGYFGKLKSKLSIIRNLNDQVLFIDQGNRPLFEDMTDSDARDNAPRTIFIISMYADSQPRGMAVAISVKCEKISTLSAENKIISFKEMNPPDNIKDTKSDIIFFQRSVPGHDNKMQFESSSYEGYFLAAEKERDLFKLILKKEDELGDRSIMFTVQNED
B15: IL-18 polypeptide SEQ ID NO: 43 (E06K, K53A, S55A, Y01G) (ligand)
chain: GFGKLKSKLSVIRNLNDQVLFIDQGNRPLFEDMTDSDCRDNAPRTIFIISMYADAQPRGMAVTISVKCEKISTLSCENKIISFKEMNPPDNIKDTKSDIIFFQRSVPGHDNKMQFESSSYEGYFLACEKERDLFKLILKKEDELGDRSIMFTVQNED
B16: IL-18 polypeptide SEQ ID NO: 44 (E06K, K53A, S55A, F02A) (ligand)
chain: YAGKLKSKLSVIRNLNDQVLFIDQGNRPLFEDMTDSDCRDNAPRTIFIISMYADAQPRGMAVTISVKCEKISTLSCENKIISFKEMNPPDNIKDTKSDIIFFQRSVPGHDNKMQFESSSYEGYFLACEKERDLFKLILKKEDELGDRSIMFTVQNED
B17: IL-18 polypeptide SEQ ID NO: 48 (C38S, C68S, C76S, C127S, K70C) (ligand)
chain: YFGKLESKLSVIRNLNDQVLFIDQGNRPLFEDMTDSDSRDNAPRTIFIISMYKDSQPRGMAVTISVKSECISTLSSENKIISFKEMNPPDNIKDTKSDIIFFQRSVPGHDNKMQFESSSYEGYFLASEKERDLFKLILKKEDELGDRSIMFTVQNED
B18: IL-18 polypeptide SEQ ID NO: 46 (E06K, K53A, S55A, M51G) (ligand)
chain: YFGKLKSKLSVIRNLNDQVLFIDQGNRPLFEDMTDSDCRDNAPRTIFIISGYADAQPRGMAVTISVKCEKISTLSCENKIISFKEMNPPDNIKDTKSDIIFFQRSVPGHDNKMQFESSSYEGYFLACEKERDLFKLILKKEDELGDRSIMFTVQNED
B19: IL-18 polypeptide SEQ ID NO: 49 (E06K, K53A, S55A, C38S, C68S, C76S, C127S, K70C) (ligand)
chain: YFGKLKSKLSVIRNLNDQVLFIDQGNRPLFEDMTDSDSRDNAPRTIFIISMYADAQPRGMAVTISVKSECISTLSSENKIISFKEMNPPDNIKDTKSDIIFFQRSVPGHDNKMQFESSSYEGYFLASEKERDLFKLILKKEDELGDRSIMFTVQNED
B20: IL-18 polypeptide SEQ ID NO: 47 (C38S, C68S, C76S, C127S) (ligand)
chain: YFGKLESKLSVIRNLNDQVLFIDQGNRPLFEDMTDSDSRDNAPRTIFIISMYKDSQPRGMAVTISVKSEKISTLSSENKIISFKEMNPPDNIKDTKSDIIFFQRSVPGHDNKMQFESSSYEGYFLASEKERDLFKLILKKEDELGDRSIMFTVQNED
B21: IL-18 polypeptide SEQ ID NO: 45 (E06K, K53A, S55A, D54A) (ligand)
chain: YFGKLKSKLSVIRNLNDQVLFIDQGNRPLFEDMTDSDCRDNAPRTIFIISMYAAAQPRGMAVTISVKCEKISTLSCENKIISFKEMNPPDNIKDTKSDIIFFQRSVPGHDNKMQFESSSYEGYFLACEKERDLFKLILKKEDELGDRSIMFTVQNED
B22: IL-18 polypeptide SEQ ID NO: 55 (K53A, T63A, C38S, C68S, C76S, C127S, K70C) (ligand)
chain: YFGKLESKLSVIRNLNDQVLFIDQGNRPLFEDMTDSDSRDNAPRTIFIISMYADSQPRGMAVAISVKSECISTLSSENKIISFKEMNPPDNIKDTKSDIIFFQRSVPGHDNKMQFESSSYEGYFLASEKERDLFKLILKKEDELGDRSIMFTVQNED

One test concerns the target T1, IL-18 receptor (IL-18Rαβ) on cells (UniProt Q13478 19-541; O95256 20-599, limits assumed).
T1 sequence (looked up) 1: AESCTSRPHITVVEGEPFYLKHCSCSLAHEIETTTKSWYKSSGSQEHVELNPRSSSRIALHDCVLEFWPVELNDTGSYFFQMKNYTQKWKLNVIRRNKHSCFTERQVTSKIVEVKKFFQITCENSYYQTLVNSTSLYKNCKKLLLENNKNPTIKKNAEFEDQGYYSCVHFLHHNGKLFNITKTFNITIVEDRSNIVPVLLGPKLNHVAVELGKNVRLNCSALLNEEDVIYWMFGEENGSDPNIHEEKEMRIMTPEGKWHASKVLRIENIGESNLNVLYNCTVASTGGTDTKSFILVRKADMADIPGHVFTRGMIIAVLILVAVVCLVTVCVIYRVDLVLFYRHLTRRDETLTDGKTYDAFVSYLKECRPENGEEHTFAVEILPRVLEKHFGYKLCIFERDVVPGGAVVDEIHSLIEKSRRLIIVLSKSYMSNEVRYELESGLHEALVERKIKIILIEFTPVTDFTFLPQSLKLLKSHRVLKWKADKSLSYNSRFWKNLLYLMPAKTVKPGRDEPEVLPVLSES
T1 sequence (looked up) 2: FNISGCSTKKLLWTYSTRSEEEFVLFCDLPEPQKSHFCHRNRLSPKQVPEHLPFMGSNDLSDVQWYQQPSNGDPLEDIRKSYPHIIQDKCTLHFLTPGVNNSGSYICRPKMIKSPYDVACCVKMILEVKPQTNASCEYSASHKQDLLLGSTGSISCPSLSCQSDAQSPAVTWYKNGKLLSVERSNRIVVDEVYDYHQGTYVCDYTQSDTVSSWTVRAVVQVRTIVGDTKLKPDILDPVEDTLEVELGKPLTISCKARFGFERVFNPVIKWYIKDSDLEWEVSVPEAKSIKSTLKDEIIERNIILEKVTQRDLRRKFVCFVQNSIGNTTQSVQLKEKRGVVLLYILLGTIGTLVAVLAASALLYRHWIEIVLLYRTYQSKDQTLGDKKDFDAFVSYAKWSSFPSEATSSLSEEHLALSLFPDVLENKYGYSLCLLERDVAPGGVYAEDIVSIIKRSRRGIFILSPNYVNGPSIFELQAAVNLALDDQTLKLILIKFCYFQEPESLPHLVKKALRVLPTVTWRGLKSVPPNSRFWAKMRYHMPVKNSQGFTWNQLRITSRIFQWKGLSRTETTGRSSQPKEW
Nature of the test: cell-based or functional assay.
For the molecule B1, the “EC50 (pM), HEK-Blue IL-18R reporter assay” value (shortened to “EC50 (pM)”) came out at 0.07 pM.
Consider B2, for which the “EC50 (pM)” value was 0.1 pM.
Still for that read-out and setting: the value for B3 was 0.04 pM.
On to B4, for which the “EC50 (pM)” value worked out at 0.1 pM.
The same measure, in the same setting: in the case of B5 it was 0.4 pM.
On the same count and under the same terms, the value for B6 was 0.04 pM.
With B7, the “EC50 (pM)” value was 0.29 pM.
In the case of B8, the “EC50 (pM)” value is 0.08 pM.
With B9, the “EC50 (pM)” value turned out to be 0.26 pM.
Take B10: the “EC50 (pM)” value worked out at 0.02 pM.
As for B11, the “EC50 (pM)” value is 3.73 pM.
Still for that read-out and setting: the value for B12 was 1.68 pM.
For B13, the “EC50 (pM)” value came out at 14 pM.
For the molecule B14, the “EC50 (pM)” value worked out at 2.5 pM.

Another test deals with T1, IL-18 receptor (IL-18Rαβ) on cells. Nature of the test: cell-based or functional assay. The source holds these as a separate data set.
As to B15, the “EC50 (nM), IFNγ induction, NK-92 cells” value amounted to 6.12 nM.
On the same count and under the same terms, the value for B16 was more than 1000 nM; that for B17 was 0.488 nM.
Take B18: the “EC50 (nM), IFNγ induction, NK-92 cells” value turned out to be 7.4 nM.
On the same count and under the same terms, in the case of B19 it was 58.5 nM; in that of B20, 0.115 nM.
B21: the “EC50 (nM), IFNγ induction, NK-92 cells” value came to 30 nM.
In the case of B22, the “EC50 (nM), IFNγ induction, NK-92 cells” value came out at 17.2 nM.
